The text below walks through data of paper PMC2856455 (Journal of molecular biology, 2010).

Experiment [1] has as its target MDM2 (Homo sapiens, UniProt Q00987). The experiment can be described thus: SPR-based competition binding assay, synthetic 25–109MDM2.
Experiment [2] addresses T1, MDMX (Homo sapiens, UniProt O15151).
T1 sequence (O15151 24-108): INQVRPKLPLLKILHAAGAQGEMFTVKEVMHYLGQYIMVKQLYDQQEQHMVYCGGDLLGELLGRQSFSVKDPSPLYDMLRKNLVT
Nature of the experiment: SPR-based competition binding assay, synthetic 24–108MDMX.

Setting [3] is: calculated binding free energy relative to PMI.

Regarding TSFAEYWNLASP [L10A-PMI], the “ΔΔG(kcal/mol), PMI-MDM2” value in experiment [1] (setting [3]) was 3.28 kcal/mol. Also, in experiment [1] (comparison of binding affinities for MDM2 and MDMX), the “preference between MDM2 and MDMX” value is reported as “higher binding affinity for MDMX than for MDM2”. For the same sequence, in experiment [1] (mutation more deleterious to MDM2 than to MDMX), the “difference in relative binding free energy, MDM2 versus MDMX” value amounted to 1.0 kcal/mol. The “Kd ratio, PMI-MDM2” value in experiment [1] (relative to PMI) came out at 277. For the same sequence, in experiment [2] (setting [3]), the “ΔΔG, PMI-MDMX” value was 2.28 kcal/mol. For the same sequence, in experiment [2] (relative to PMI), the “Kd ratio (kcal/mol), PMI-MDMX” value is on record as 50 kcal/mol.
